For orientation: Kd means the equilibrium constant for the complex coming apart.

From patent US20130251714A1 (Sanofi, published 2013) come the findings set out here.

Test [1] concerns the target T1, cynomolgus CXCR5 (on cynomolgus B cells) (cynomolgus monkey, UniProt G8F5K4 1-372).
T1 construct: also called cyno CXCR5
T1 sequence: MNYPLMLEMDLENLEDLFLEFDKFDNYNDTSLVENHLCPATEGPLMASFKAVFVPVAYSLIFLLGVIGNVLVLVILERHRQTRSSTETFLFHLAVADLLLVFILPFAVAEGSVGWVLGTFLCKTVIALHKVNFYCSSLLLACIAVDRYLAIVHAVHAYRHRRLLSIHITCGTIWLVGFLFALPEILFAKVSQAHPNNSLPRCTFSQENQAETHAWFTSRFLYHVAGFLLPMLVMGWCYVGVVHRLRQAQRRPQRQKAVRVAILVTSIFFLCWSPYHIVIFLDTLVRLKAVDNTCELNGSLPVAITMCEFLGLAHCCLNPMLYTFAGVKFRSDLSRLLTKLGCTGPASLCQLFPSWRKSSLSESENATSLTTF
Description: FACS on cynomolgus PBMCs (CD20+ B cells). As for the experimental part:
Cynomolgus (cyno) monkey whole blood was obtained from Bioreclamation, Inc. (Hicksville, N.Y.). The blood was shipped in BD Cell Preparation Tubes (CPT) post-centrifugation. The cyno PBMCs contained in the plasma layer were removed from the CPT tube into a 50 ml tube leaving the gradient gel layer undisturbed. The tube was washed with 5 ml PBS to completely extract all the cells and the wash was added to a fresh 50 ml tube. The cyno PBMCs were centrifuged at 1200 RPM for 10 minutes at 4° C. The pellet was resuspended in 1 ml BD FACS Stain buffer (BD). One million cells were used per assay. One μg of mouse anti-human CXCR5 monoclonal antibody (purified) was added to 50 μl PBMC and allowed to bind for 20 minutes at 4° C. Cells were washed 2 times with BD Stain buffer. Fifty μl of second antibody, goat anti-mouse IgG-PE F_{(ab′)} (Beckman Coulter) diluted 1/100, was added to the cells and allowed to bind for 20 minutes at 4° C. Cells were washed three times with BD Stain buffer. A cocktail containing mouse anti-human CD20-FITC (BD) and CD4-APC (BD) at 1/20 dilution each was added to cells for a 20 minute incubation at 4° C. for assessment of B/T cell specificity. Cells were washed 3 times with BD Stain buffer, and resuspended in 250 μl BD Stain buffer and subjected to FACS analysis on a FACStarPlus. Commercial mouse anti-human CXCR5 mAb (R&D; MAB 190) was used as a positive control.

Test [2] addresses T2, N-terminal EC region of human CXCR5 (amino acids 1-59), synthetic peptide with a terminal biotin tag (human, UniProt P32302 1-59, terminal biotin tag).
T2 construct: range 1-59; also called biotinylated human peptide
T2 sequence (peptide, looked up): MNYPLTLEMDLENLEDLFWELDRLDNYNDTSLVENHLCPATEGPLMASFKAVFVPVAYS
Description: Biacore, forward format: biotin-tagged CXCR5 N-terminal peptide (aa 1-59) on the chip, antibody as analyte. As for the experimental part: The N-terminal EC region of CXCR5 (amino acids 1-59) from human and mouse were synthesized with a terminal biotin tag, and used in a forward format Biacore assay where the peptides were immobilized on a Biacore chip and then the kinetics of antibody interaction with the peptides on the chip were determined. The synthetic peptides were immobilized on a Biacore chip for approximately 20 response units (RUs'). Then the mAb's were exposed to the chip for kinetic measurements, following the manufacturer's recommendations (GE Healthcare, Piscataway, N.J.).
(SPR reads the build-up and loss of mass on a sensor chip optically.)

Test [3] addresses T3, un-tagged human CXCR5 N-terminal peptide (amino acids 1-59) (human, UniProt P32302 1-59).
T3 construct: range 1-59
T3 sequence (peptide, looked up): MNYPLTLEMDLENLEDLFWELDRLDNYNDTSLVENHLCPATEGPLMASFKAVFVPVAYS
Description: Biacore, reverse format: mAb captured by pre-immobilized mouse anti-human IgG Fc antibody, un-tagged peptide as analyte. As for the experimental part: Humanized SAR113244, a form of the 16D7 humanized variant, 16D7-HC1-LC3 that carries the S241P and L248E substitutions (substitutions introduced practicing known methods and reagents, using Kabat numbering), was captured on a Biacore chip by pre-immobilized mouse anti-human IgG Fc antibody, and then used in a reverse assay format Biacore assay where the kinetics of the un-tagged human CXCR5 N-terminal peptide (amino acids 1-59) interaction with the mAb's on the chip were determined.

B1: Mouse anti-hCXCR5 mAb clone 16D7 (antibody, V domains shown)
VH: QVQLKESGPGLVAPSQSLSITCTVSGFSLIDYGVNWIRQPPGKGLEWLGVIWGDGTTYYNSALKSRLSIRKDNSQSQVFLKMNSLQTDDTAMYYCARIVYWGQGTLVTVSA
VL: DIVMTQAAPSVAVTPRESVSISCRSSKSLLHSSGKTYLYWFLQRPGQSPQLLIYRMSNLASGVPDRFSGSGSGTAFTLRISRVEAEDVGVYYCMQHLEYPYTFGGGTKLEIK
notes: Mouse monoclonal antibody from a hybridoma; kappa light chain; also called murine 16D7; parent 16D7 antibody
With B1, in test [1], the binding result is “no binding (tested: One µg of antibody added to 50 µl PBMC)”. In test [2], the Kd is 2.16 pM.

B2: 16D7-HC1-LC2 (antibody, V domains shown)
VH: QVQLKESGPGLVAPSESLSITCTVSGFSLIDYGVNWIRQPPGKGLEWLGVIWGDGTTYYNPSLKSRLSISKDNSKSQVFLKVTSLTTDDTAMYYCARIVYWGQGTLVTVSA
VL: DIVMTQAAPSVAVTPGASVSISCRSSKSLLHSSGKTYLYWFLQRPGQSPQLLIYRLSNLASGVPDRFSGSGSGTAFTLRISRVEAEDVGVYYCMQHLEYPYTFGGGTKLEIKR
notes: Humanized 16D7 on an IgG4 backbone / kappa; also called Version3
As for B2, the binding result in test [1] was “no binding”. The same molecule had a Kd in test [2] of 1.41 pM.

B3: 16D7-HC1-LC1 (antibody, V domains shown)
VH: QVQLKESGPGLVAPSESLSITCTVSGFSLIDYGVNWIRQPPGKGLEWLGVIWGDGTTYYNPSLKSRLSISKDNSKSQVFLKVTSLTTDDTAMYYCARIVYWGQGTLVTVSA
VL: DIVMTQAAPSVAVTPGASVSISCRSSKSLLHSSGKTYLYWFLQRPGQSPQLLIYRMSNLASGVPDRFSGSGSGTAFTLRISRVEAEDVGVYYCMQHLEYPYTFGGGTKLEIKR
notes: Humanized 16D7 on an IgG4 backbone / kappa; also called Version1
In the case of B3, in test [1], the binding result was “no binding”. In test [2], this molecule had a Kd of 3.11 pM.

B4: 16D7-HC1-LC3 (antibody)
heavy: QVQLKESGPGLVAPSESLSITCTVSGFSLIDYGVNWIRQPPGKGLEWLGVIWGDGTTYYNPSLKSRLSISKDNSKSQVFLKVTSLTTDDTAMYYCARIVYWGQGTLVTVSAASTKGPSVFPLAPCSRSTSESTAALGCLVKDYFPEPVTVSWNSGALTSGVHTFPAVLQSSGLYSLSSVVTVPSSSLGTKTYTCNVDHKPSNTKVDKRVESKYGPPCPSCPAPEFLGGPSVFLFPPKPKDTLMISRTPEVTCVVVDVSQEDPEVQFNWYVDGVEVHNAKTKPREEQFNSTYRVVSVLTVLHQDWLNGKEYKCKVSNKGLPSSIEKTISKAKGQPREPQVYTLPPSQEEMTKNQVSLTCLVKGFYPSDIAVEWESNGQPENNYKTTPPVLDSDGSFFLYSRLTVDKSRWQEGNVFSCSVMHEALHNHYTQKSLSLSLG
light: DIVMTQAAPSVAVTPGASVSISCRSSKSLLHSSGKTYLYWFLQRPGQSPQLLIYRLSSLASGVPDRFSGSGSGTAFTLRISRVEAEDVGVYYCMQHLEYPYTFGGGTKLEIKRTVAAPSVFIFPPSDEQLKSGTASVVCLLNNFYPREAKVQWKVDNALQSGNSQESVTEQDSKDSTYSLSSTLTLSKADYEKHKVYACEVTHQGLSSPVTKSFNRGEC
notes: Humanized 16D7 on an IgG4 backbone / kappa; also called Version 4
Turning to B4, the binding result in test [1] is “no binding”. In test [2], this molecule gave a dissociation constant (Kd) of 1.21 pM.

B5: 16D7-HC2-LC1 (antibody, V domains shown)
VH: EVQLKESGPGLVAPGGSLSITCTVSGFSLIDYGVNWIRQPPGKGLEWLGVIWGDGTTYYNAPLKGRLSISKDNSKSQVFLQMNSLKTDDTAMYYCARIVYWGQGTLVTVSS
VL: DIVMTQAAPSVAVTPGASVSISCRSSKSLLHSSGKTYLYWFLQRPGQSPQLLIYRMSNLASGVPDRFSGSGSGTAFTLRISRVEAEDVGVYYCMQHLEYPYTFGGGTKLEIKR
notes: Humanized 16D7 on an IgG4 backbone / kappa; also called Version 2
In the case of B5, the binding result in test [1] is recorded as “no binding”. Also, the Kd in test [2] is 2.4 pM.

B6: mouse/human IgG4 chimeric 16D7 (antibody, V domains shown)
VH: QVQLKESGPGLVAPSQSLSITCTVSGFSLIDYGVNWIRQPPGKGLEWLGVIWGDGTTYYNSALKSRLSIRKDNSQSQVFLKMNSLQTDDTAMYYCARIVYWGQGTLVTVSA
VL: DIVMTQAAPSVAVTPRESVSISCRSSKSLLHSSGKTYLYWFLQRPGQSPQLLIYRMSNLASGVPDRFSGSGSGTAFTLRISRVEAEDVGVYYCMQHLEYPYTFGGGTKLEIKR
notes: 16D7 VH and VL on human IgG4 (IGHG4 lacking the C-terminal Lys) and kappa (IGKC); also called the hIgG4 chimera
Molecule B6 came in with a Kd in test [2] of 1.41 pM.

B7: Humanized SAR113244 (16D7-HC1-LC3 carrying the S241P and L248E substitutions) (antibody)
heavy: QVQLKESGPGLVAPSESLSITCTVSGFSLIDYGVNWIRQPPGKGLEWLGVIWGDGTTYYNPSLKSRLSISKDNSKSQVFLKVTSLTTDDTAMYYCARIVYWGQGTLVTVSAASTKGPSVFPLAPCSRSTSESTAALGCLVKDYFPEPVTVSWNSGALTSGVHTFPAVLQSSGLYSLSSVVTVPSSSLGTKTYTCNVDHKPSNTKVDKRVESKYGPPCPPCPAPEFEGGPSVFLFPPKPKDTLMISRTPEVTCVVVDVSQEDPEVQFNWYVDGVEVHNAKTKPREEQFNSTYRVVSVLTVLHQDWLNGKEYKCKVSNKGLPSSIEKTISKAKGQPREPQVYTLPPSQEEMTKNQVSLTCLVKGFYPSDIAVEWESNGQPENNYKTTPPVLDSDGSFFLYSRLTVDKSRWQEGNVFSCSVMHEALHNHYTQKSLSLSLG
light: DIVMTQAAPSVAVTPGASVSISCRSSKSLLHSSGKTYLYWFLQRPGQSPQLLIYRLSSLASGVPDRFSGSGSGTAFTLRISRVEAEDVGVYYCMQHLEYPYTFGGGTKLEIKRTVAAPSVFIFPPSDEQLKSGTASVVCLLNNFYPREAKVQWKVDNALQSGNSQESVTEQDSKDSTYSLSSTLTLSKADYEKHKVYACEVTHQGLSSPVTKSFNRGEC
notes: Leader (residues 1-19) left out as for 16D7-HC1-LC3
Molecule B7 had a dissociation constant Kd in test [3] of 11.3 pM.

B8: 16D7-HC3-LC5 (antibody, V domains shown)
VH: QVQLQESGPGLVAPSESLSITCTVSGFSLIDYGVNWIRQPPGKGLEWLGVIWGDGTTYYNPSLKSRLSISKDNSKSQVFLKMNSLTAADTAMYYCARIVYWGQGTLVTVSS
VL: DIVMTQSALSVAVTPGESVSISCRSSKSLLHSSGKTYLYWFLQRPGQSPQLLIYRLSNLASGVPDRFSGSGSGTAFTLKISRVEAEDVGVYYCMQHLEYPYTFGGGTKLEIKR
notes: Resurfaced 16D7; VL fused to IGKC, VH fused to IGHG4 lacking the C-terminal Lys; also called Version6
Molecule B8 registered a Kd in test [2] of 184 pM.

B9: 16D7-HC1-LC6 (antibody, V domains shown)
VH: QVQLKESGPGLVAPSESLSITCTVSGFSLIDYGVNWIRQPPGKGLEWLGVIWGDGTTYYNPSLKSRLSISKDNSKSQVFLKVTSLTTDDTAMYYCARIVYWGQGTLVTVSA
VL: DIVMTQSALSVAVTPGESVSISCRSSKSLLHSSGKTYLYWFLQRPGQSPQLLIYRLSSLASGVPDRFSGSGSGTAFTLKISRVEAEDVGVYYCMQHLEYPYTFGGGTKLEIKR
notes: Leader (residues 1-19) left out by comparison with the printed variable domains
For the molecule B9, the dissociation constant Kd in test [2] was determined as 91.7 pM.

B10: 16D7-HC3-LC4 (antibody, V domains shown)
VH: QVQLQESGPGLVAPSESLSITCTVSGFSLIDYGVNWIRQPPGKGLEWLGVIWGDGTTYYNPSLKSRLSISKDNSKSQVFLKMNSLTAADTAMYYCARIVYWGQGTLVTVSS
VL: DIVMTQSALSVAVTPGESVSISCRSSKSLLHSSGKTYLYWFLQRPGQSPQLLIYRMSNLASGVPDRFSGSGSGTAFTLKISRVEAEDVGVYYCMQHLEYPYTFGGGTKLEIKR
notes: Resurfaced 16D7; VL fused to IGKC, VH fused to IGHG4 lacking the C-terminal Lys; also called Version5
For the molecule B10, the affinity in test [2], expressed as Kd, was 4.92 pM.
